Experimental data from patent US7098012.
Read-outs that look alike come from different tables or passages of the source.

Legend:
[1] = system: DNA demethylase (DNA dMTase) purified from A549 nuclear extract (Homo sapiens); settings: Km, 37 C, buffer L
[2] = system: DNA demethylase (DNA dMTase) purified from A549 nuclear extract (Homo sapiens); test: inhibition; settings: 5mC at CpG; oligonucleotide sequence only as image; preparation of enzyme not stated

Work on “SssI-methylated pBluescript SK(+) plasmid” yielded an activity ([1]; 5mC at all CpG, Vmax 40.42 pmol/h) of 3.3 nM.
“double stranded CmG oligonucleotide inhibitor” gave a Ki [2] of 50 nM.
fully methylated poly[mdCpdG]n gave an activity ([1]; 5mC at all C of CpG, Vmax 340 pmol/h) of 2.5 nM.
Work on hemimethylated [dCpdG]n*[mdCpdG]n yielded an activity ([1]; 5mC on one strand, Vmax 402 pmol/h) of 6 nM.
